According to the RNAGym collection of RNA variant scans (doi:10.7554/elife.90254):

B1: OR4K15 (parent)
chain: GUUAACGGUCAUAGGCCAUGGAAACUAGGAGCACCAUUUCGCUGCCAGUGAAGAAAUGAACAAAGAAAAUCUGGGCCAGGCAGGCAUCAAAAGAAAUAGUCUUGCGCUCAACCAGAAAGUCUGUAAUCAUUUUAAGGGUA

Variants of: B1
Experiment: self-cleavage, relative activity (ratio to wild type); higher = more cleavage; in vitro, sequencing; the parent is a self-cleaving ribozyme

First: C34U A55G
Second: U97G U127C
The self-cleavage of the first is higher: 2.06 for the first, 0.49 for the second.

Compared with A94U U103C, A86C U139C is higher in self-cleavage: 0.46 for the first, 0.51 for the second.

Going from A63G to C107A U122C, the self-cleavage falls from 1.41 to 0.01.

First: A23U A86C
Second: A60U A94U
The self-cleavage of the first is lower: 0.82 for the first, 1.82 for the second.

Compared with C17U A18U, U3C A82U is lower in self-cleavage: 1.26 for the first, 0.21 for the second.

Compared with A63G A64G, A116G A118C is lower in self-cleavage: 1.37 for the first, 0.15 for the second.

Going from A95U U132C to G50A A66U, the self-cleavage falls from 1.4 to 0.67.

Compared with G99A U131C, A11G A55G is higher in self-cleavage: 0.42 for the first, 0.92 for the second.

Compared with U43C U124C, U49G G83A is lower in self-cleavage: 1.13 for the first, 0.47 for the second.

First: A4G A24G
Second: A30G U102C
The self-cleavage of the first is higher: 1.62 for the first, 1.21 for the second.

Compared with A33G U124C, U100C G137A is higher in self-cleavage: 0.63 for the first, 2.22 for the second.

First: A23G U49G
Second: A33G A47G
The self-cleavage of the first is higher: 1.02 for the first, 0.32 for the second.

First: U39C C105U
Second: A69C
The self-cleavage of the first is lower: 0.24 for the first, 1.05 for the second.

Compared with C46A A134G, A60G A125G is lower in self-cleavage: 1.14 for the first, 0.69 for the second.

First: U38C G83A
Second: A51G A140G
The self-cleavage of the first is higher: 2.15 for the first, 1.62 for the second.

Compared with A69C U120C, A55U U127C is higher in self-cleavage: 0.7 for the first, 0.93 for the second.

Going from U9A A47U to U19C C112A, the self-cleavage falls from 0.91 to 0.02.

Compared with U103A, U100C A129U is higher in self-cleavage: 0.39 for the first, 1.49 for the second.

First: A64G A118C
Second: U9G C45G
The self-cleavage of the first is lower: 0.2 for the first, 0.5 for the second.

Going from A22G U122C to U37C G44A, the self-cleavage rises from 0.86 to 1.56.

First: A18C U39A
Second: G21C C61U
The self-cleavage of the first is higher: 1.48 for the first, 0.94 for the second.

First: A110U U127C
Second: A52G A91U
The self-cleavage of the first is lower: 0.44 for the first, 2.17 for the second.

Going from A23G A89C to U26A A63U, the self-cleavage rises from 1.98 to 2.02.

First: U19C A24G
Second: A78G A90U
The self-cleavage of the first is higher: 1.28 for the first, 0.31 for the second.

Going from A94C to U19C A78U, the self-cleavage falls from 1.69 to 0.28.

Compared with A47G G99A, U103C A129U is lower in self-cleavage: 0.4 for the first, 0.29 for the second.

First: A126G U139C
Second: A36U A125G
The self-cleavage of the first is higher: 1.19 for the first, 0.7 for the second.

Compared with U39A U57A, A82G U139A is lower in self-cleavage: 1.37 for the first, 0.23 for the second.

Going from A24U A89G to A67G U102C, the self-cleavage rises from 0.56 to 1.56.

Going from A18U U70C to A64G U130C, the self-cleavage falls from 1.04 to 0.45.

Compared with U12G A13G, A90U U133C is higher in self-cleavage: 1.09 for the first, 1.61 for the second.

First: C17U
Second: A54U A94G
The self-cleavage of the first is lower: 0.8 for the first, 1.64 for the second.

First: A111G A134U
Second: A24G
The self-cleavage of the first is lower: 0.02 for the first, 1.09 for the second.

First: G29A A66G
Second: C17U U100A
The self-cleavage of the first is higher: 1.59 for the first, 0.96 for the second.

First: A30G A64U
Second: A66G U124C
The self-cleavage of the first is lower: 0.3 for the first, 0.76 for the second.

Compared with U9C U131A, U38C A117G is lower in self-cleavage: 1.8 for the first, 1.18 for the second.

Going from G20A A78G to A33U U139C, the self-cleavage rises from 0.3 to 1.86.

Compared with U102A U103A, A24G A51G is higher in self-cleavage: 0.12 for the first, 1.27 for the second.

Compared with U97A U133C, U43A A62G is lower in self-cleavage: 2.13 for the first, 0.93 for the second.

Compared with U3A U130G, U97C is lower in self-cleavage: 0.73 for the first, 0.71 for the second.

Compared with A59G A89G, A24C G80A is lower in self-cleavage: 1.09 for the first, 0.19 for the second.

First: A54G A86G
Second: A56G A62G
The self-cleavage of the first is lower: 1.28 for the first, 1.92 for the second.

Compared with U72C U97C, U57C A95U is higher in self-cleavage: 0.1 for the first, 1.28 for the second.

Going from A54G G75A to U19A U103C, the self-cleavage rises from 0.14 to 0.75.

Going from A54G G123U to U9C A118G, the self-cleavage falls from 1.75 to 1.32.

First: U108A A129G
Second: A86G U130A
The self-cleavage of the first is lower: 0 for the first, 1.55 for the second.

First: A60G C128G
Second: U9C A33U
The self-cleavage of the first is lower: 0.87 for the first, 1.73 for the second.

Going from A92C A96G to A60U A89U, the self-cleavage falls from 1.73 to 1.68.

Compared with A47C A110C, A96C A116G is lower in self-cleavage: 0.46 for the first, 0.33 for the second.

First: A78U A114U
Second: A11G A114U
The self-cleavage of the first is lower: 0.03 for the first, 0.15 for the second.

First: C32A G79A
Second: U132G
The self-cleavage of the first is lower: 0.17 for the first, 0.89 for the second.

Compared with G41C A111G, A4G A22G is higher in self-cleavage: 0.02 for the first, 1.17 for the second.

Compared with A92G C113A, A55U U57C is higher in self-cleavage: 0.01 for the first, 1.76 for the second.

Going from U38A A110G to A47G A55G, the self-cleavage rises from 0.16 to 0.59.

Going from A11U A13U to A78C C128U, the self-cleavage falls from 1.5 to 0.29.

Compared with A64G U102C, A13C U122C is lower in self-cleavage: 2.06 for the first, 1.03 for the second.

Compared with A116U A129G, A22G A91U is higher in self-cleavage: 0.13 for the first, 1.06 for the second.

First: A63G A134G
Second: C16G U124A
The self-cleavage of the first is higher: 1.47 for the first, 0.77 for the second.

First: A11U U49A
Second: C17U U43A
The self-cleavage of the first is lower: 0.68 for the first, 1.18 for the second.

First: A4G
Second: A55G A68C
The self-cleavage of the first is lower: 0.87 for the first, 2.11 for the second.

First: A4G A47C
Second: C61G A110G
The self-cleavage of the first is higher: 0.42 for the first, 0.41 for the second.

First: U3C A51C
Second: A68G G83A
The self-cleavage of the first is lower: 0.84 for the first, 1.73 for the second.

Compared with U70A A125G, A69G A96U is higher in self-cleavage: 0.44 for the first, 1.85 for the second.

Going from U39C C45U to A55G G65A, the self-cleavage falls from 1.46 to 1.07.

Compared with U70C A129G, A36G U120A is higher in self-cleavage: 0.33 for the first, 2.61 for the second.

First: C45A A114G
Second: A33U U43C
The self-cleavage of the first is lower: 0.06 for the first, 0.26 for the second.

First: A95G C101U
Second: A114U G137U
The self-cleavage of the first is higher: 1.28 for the first, 0.3 for the second.

First: U12C U100G
Second: U3C C101U
The self-cleavage of the first is higher: 1.34 for the first, 0.51 for the second.

Going from A91G U139C to U57C U97C, the self-cleavage falls from 1.71 to 1.09.

Compared with A24U A116G, C88G A129G is higher in self-cleavage: 0.78 for the first, 2.37 for the second.

Going from U72G G74A to C32A U108C, the self-cleavage falls from 0.18 to 0.03.

First: U57A A89U
Second: A116G A126G
The self-cleavage of the first is higher: 0.95 for the first, 0.12 for the second.

Compared with G21A A96C, U37C U70A is higher in self-cleavage: 0.6 for the first, 1.1 for the second.

Compared with A30G A55U, A68U U87G is lower in self-cleavage: 1.44 for the first, 0.38 for the second.

Going from A60C U122C to U37C A90G, the self-cleavage falls from 1.62 to 1.12.

First: A90U A92G
Second: A23G U100C
The self-cleavage of the first is lower: 1.38 for the first, 1.72 for the second.

First: A116G A140U
Second: A118G C121U
The self-cleavage of the first is lower: 0.92 for the first, 1.94 for the second.

Going from U37C G104A to A82G A125G, the self-cleavage rises from 0.03 to 0.23.

Going from A36U U127A to A18U A89G, the self-cleavage falls from 2.98 to 1.59.

First: A86U G123A
Second: A111G A116G
The self-cleavage of the first is higher: 1.59 for the first, 0.01 for the second.

Compared with A18G A92G, A60G A91U is higher in self-cleavage: 1.3 for the first, 1.31 for the second.

Going from A90U U103C to A69G U100G, the self-cleavage rises from 1.27 to 1.94.

First: A82G C85U
Second: A47U G115A
The self-cleavage of the first is higher: 0.32 for the first, 0.15 for the second.

In the case of U12C U39C, the self-cleavage is reported as 1.21.
